Patent US20140303084
Changes are numbered by the printed parent chain.

Key:
[1] = test system: T1, Orn-LTCLASYCWLF
T1 sequence: XLTCLASYCWLF

[2] = test system: T2, RRAPGKLTCLASYCWLF FTGVA RSTTATTNTQ
T2 sequence: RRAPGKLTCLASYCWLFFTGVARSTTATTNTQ

[3] = test system: T3, TQWAQVGPRG RRAQG KLTCLASYCWLFWTGIA
T3 sequence: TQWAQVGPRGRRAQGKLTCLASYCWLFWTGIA

[4] = test system: T4, k-MeLeu-TCLASFCWLF
T4 sequence: KLTCLASFCWLF

[5] = test system: T5, PRIRTVGPGSRSASGKLTCSASYCWLFWTGIA
T5 sequence: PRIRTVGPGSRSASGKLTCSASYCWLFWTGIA

[6] = test system: T6, TGLLQGRRDE RARPP KLTCLASYCWLFWTGIA
T6 sequence: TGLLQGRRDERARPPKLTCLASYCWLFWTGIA

[7] = test system: T7, RRAPGKLTCLASYCWLFWTK(PEG2-Biotin)IA
T7 sequence: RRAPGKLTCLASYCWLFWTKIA

[8] = test system: T8, K-k-MeLeu-TCLASYCWLF
T8 sequence: KKLTCLASYCWLF

[9] = test system: T9, RRAPGKLTCLASYCWLFWT-Sar-IA
T9 sequence: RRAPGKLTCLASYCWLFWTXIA

[10] = test system: T10, PRIRTVGPGSRSASGKLTCLASYCWLFWTLIA
T10 sequence: T5 sequence with S20L, G30L

[11] = test system: T11, ALTCLASYCWLF
T11 sequence: ALTCLASYCWLF

[12] = test system: T12, RRAPGkLTCLASYCWLFWTGIA
T12 sequence: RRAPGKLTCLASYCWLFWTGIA

[13] = test system: T13, RYQRARLTCLASYCGLLFSMSA
T13 sequence: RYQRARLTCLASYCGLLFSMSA

[14] = test system: T14, KLKCLASYCWLF
T14 sequence: KLKCLASYCWLF

[15] = test system: T15, KLT-Dab-LASY-Glu-WLF
T15 sequence: KLTXLASYEWLF

[16] = test system: T16, DAKVAKLRCLGSQCWLLQYAPG
T16 sequence: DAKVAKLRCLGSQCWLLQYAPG

[17] = test system: T17, RRAPGKLTCLASYCWL-MePhe-WTGIA
T17 sequence: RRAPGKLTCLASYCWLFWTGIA

[18] = test system: T18, SKQGRPISPDrRAAGKLTCLASYCWLFWTGI
T18 sequence: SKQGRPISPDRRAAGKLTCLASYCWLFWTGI

[19] = test system: T19, RRAPGKLTCLASYCWLF WTTWT TAPTTPPLTT
T19 sequence: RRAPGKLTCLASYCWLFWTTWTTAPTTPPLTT

[20] = test system: T20, RRAKGKLQCLASYCWLFWTGIA
T20 sequence: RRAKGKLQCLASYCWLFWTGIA

[21] = test system: T21, C(N-ethylmaleimide)-PEG4-LVPR-PEG4-rRAPGKLTCLASYCWLFWTGIA
T21 sequence: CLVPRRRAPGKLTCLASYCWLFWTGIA

[22] = test system: T22, KLTCLASYCFLF
T22 sequence: KLTCLASYCFLF

[23] = test system: T23, LQLSYGEQRQ SRAPG KLTCLASYCWLFWTGIA
T23 sequence: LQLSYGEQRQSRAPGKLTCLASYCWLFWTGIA

[24] = test system: T24, compound 20
T24 sequence: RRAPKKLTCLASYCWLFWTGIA

[25] = test system: T25, KLTCLASYC
T25 sequence: KLTCLASYC

[26] = test system: T26, RK(PEG2-Biotin)APGKLTCLASYCWLFWTGIA
T26 sequence: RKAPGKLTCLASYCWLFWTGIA

[27] = test system: T27, RRAPGKLTCLASYCWLF YTGIA HGHPMEHRKS
T27 sequence: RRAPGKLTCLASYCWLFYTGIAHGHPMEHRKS

[28] = test system: T28, KLTCLA-HSe-YCWLF
T28 sequence: KLTCLAXYCWLF

[29] = test system: T29, RSHSLDRMAG RRAPG KLTCLASYCWLFWTGIA
T29 sequence: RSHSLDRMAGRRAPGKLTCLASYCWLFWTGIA

[30] = test system: T30, RRApGKLTCLASYCWLFWTGIA
T30 sequence: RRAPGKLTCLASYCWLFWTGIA

[31] = test system: T31, KLQCLASYCWLFWTGIA
T31 sequence: KLQCLASYCWLFWTGIA

[32] = test system: T32, KLT-Glu-LASY-Dab-WLF
T32 sequence: KLTELASYXWLF

[33] = test system: T33, PRIRTVGSGSRSASGKLTCLASYCWLFWTGIA
T33 sequence: T5 sequence with P8S, S20L

[34] = test system: T34, RRAPGKLTCLASYCWLF WTGLA STLYKTYTRE
T34 sequence: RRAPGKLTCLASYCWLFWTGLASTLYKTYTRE

[35] = test system: T35, FGQPSRLTCLASYCWLFGNLVT
T35 sequence: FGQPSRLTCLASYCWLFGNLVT

[36] = test system: T36, SKQGRPISSDrRASGKLTCLASYCWLFWTGIA
T36 sequence: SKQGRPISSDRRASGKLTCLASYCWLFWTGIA

[37] = test system: T37, CGGGLVPRGGG-RRAPGKLT-Asp-LASY-Lys-WLFWTGIA
T37 sequence: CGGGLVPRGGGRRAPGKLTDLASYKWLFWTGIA

[38] = test system: T38, SKQGRPISPDrRAAGKLTCLASYCWLFWTGIA-PEG4-C(N-PEG5k maleimide)
T38 sequence: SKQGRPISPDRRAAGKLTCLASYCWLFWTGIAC

[39] = test system: T39, RRCPGKLQALASYCWLFWTGIA
T39 sequence: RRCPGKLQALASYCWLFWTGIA

[40] = test system: T40, RRAPGKLTcLASYCWLFWTGIA
T40 sequence: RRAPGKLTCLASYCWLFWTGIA

[41] = test system: T41, RRAPGKLT-Dab-LASY-Asp-WLFWTGIA-COOH
T41 sequence: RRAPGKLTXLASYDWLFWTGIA

[42] = test system: T42, KLT-Glu-LASY-Dap-WLF
T42 sequence: KLTELASYXWLF

[43] = test system: T43, RRAP-Sar-KLTCLASYCWLFWTGIA
T43 sequence: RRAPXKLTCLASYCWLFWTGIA

[44] = test system: T44, Pra-PEG4-PRIrTVGPGSrSASGKSTCLASYCWLFWTGIA
T44 sequence: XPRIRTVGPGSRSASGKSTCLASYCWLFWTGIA

[45] = test system: T45, RSQGRKLTCLASYCWLFLVVHR
T45 sequence: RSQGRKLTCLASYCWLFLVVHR

[46] = test system: T46, Ac-KLTCLASYCWLF
T46 sequence: KLTCLASYCWLF

[47] = test system: T47, WRAGLDESQR DRAPG KLTCLASYCWLFWTGIA
T47 sequence: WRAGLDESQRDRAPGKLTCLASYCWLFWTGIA

[48] = test system: T48, SKQGRPISPDrRAAGKLTCLASYCWLFW
T48 sequence: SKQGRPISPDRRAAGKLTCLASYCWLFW

human Factor IXa
Vmax, FXa generation assay; (++) means 1-2 [1]: (++)
Vmax, FXa generation assay [2]: > 2
Vmax, FXa generation assay [3]: > 3
Vmax, FXa generation assay [4]: > 2
Vmax, FXa generation assay; (++) means 1-2 [5]: (++)
Vmax, FXa generation assay [6]: > 3
Vmax, FXa generation assay [7]: > 2
Vmax, FXa generation assay [8]: > 3
Vmax, FXa generation assay [9]: > 3
Vmax, FXa generation assay [10]: > 3
Vmax, FXa generation assay; (++) means 1-2 [11]: (++)
Vmax, FXa generation assay [12]: > 2
Vmax, FXa generation assay [13]: > 0.5
Vmax, FXa generation assay [14]: > 3
Vmax, FXa generation assay; (++) means 1-2 [15]: (++)
Vmax, FXa generation assay; (++) means 1-2 [16]: (++)
Vmax, FXa generation assay [17]: > 2
Vmax, FXa generation assay [18]: > 3
Vmax, FXa generation assay [19]: > 2
Vmax, FXa generation assay; (++) means 1-2 [20]: (++)
Vmax, FXa generation assay; (++) means 1-2 [21]: (++)
Vmax, FXa generation assay [22]: > 3
Vmax, FXa generation assay; (++) means 1-2 [23]: (++)
Vmax, FXa generation assay with hFIXa [24]: > 2
Vmax, FXa generation assay [25]: > 3
Vmax, FXa generation assay; (++) means 1-2 [26]: (++)
Vmax, FXa generation assay [27]: > 3
Vmax, FXa generation assay; (++) means 1-2 [28]: (++)
Vmax, FXa generation assay [29]: > 3
Vmax, FXa generation assay; (++) means 1-2 [30]: (++)
Vmax, FXa generation assay [31]: > 2
Vmax, FXa generation assay; (++) means 1-2 [32]: (++)
Vmax, FXa generation assay [33]: > 3
Vmax, FXa generation assay; (++) means 1-2 [34]: (++)
Vmax, FXa generation assay; (++) means 1-2 [35]: (++)
Vmax, FXa generation assay [36]: > 3
Vmax, FXa generation assay [37]: > 2
Vmax, FXa generation assay [38]: > 0.5
Vmax, FXa generation assay [39]: > 2
Vmax, FXa generation assay; (++) means 1-2 [40]: (++)
Vmax, FXa generation assay; (++) means 1-2 [41]: (++)
Vmax, FXa generation assay; (++) means 1-2 [42]: (++)
Vmax, FXa generation assay [43]: > 2
Vmax, FXa generation assay; (++) means 1-2 [44]: (++)
Vmax, FXa generation assay; (++) means 1-2 [45]: (++)
Vmax, FXa generation assay; (++) means 1-2 [46]: (++)
Vmax, FXa generation assay; (++) means 1-2 [47]: (++)
Vmax, FXa generation assay [48]: > 3
